Measurements: a protein production outcome set (Wang et al. 2014)

Experiment: label from the status in PepcDB records

MRRTPRKATAAGALMAATAFLTVGIQAVPATAKPAAPHPSPLRTGGQEAKLTPAQHSALLKSAAKKTTTTAATLGLGAKEKLVVRDVVKDNDGTLHTRYERTWAGLPVLGGDVVVHTPPASLAAGTVSSTFNNKRTIKVASTTASFTRSAAVTKALKAAKDLAAEKATTDSARKVIWAGSGAPKLAWETVIGGLQDDGTPSQLHVITDATTGKELYRYQGVKTGTGNTQYSGTVSLSTTLSGSTYQLYDTTRGGHKTYSLNNGTSGTGTLMTDADDTWGTGSGSNTQTAGADAAYGAQTTWDFYKNTFGRSGIKNDGVAAYSRVHYSTAYVNAFWDDDCFCMTYGDGTSSTHALTSLDVAGHEMSHGVTSNTAGLNYTGESGGLNEATSDIFGTGVEFYAANSSDVGDYLIGEKIDINGDGTPLRYMDEPDKDGGSADSWYSGVGNLDVHYSSGPANHMFYLLSEGSGSKTINGVTYNSPTSDGVAVAGIGRAAALQIWYKALTTYMTSSTNYAGARTAALNAATALYGASSTQYAGVANAFAGINVGSHVTPPTSGVTVTNPGSQSSTVGTAVSLQVSASSTNSGSLTYAATGLPTGLSVNSSTGVISGTPTTAGTYSTTVTVTDSTGATGTASFTWTVSSSGGGGTCASTQLLGNPGFESGNTTWTASSGVITNSSSEAAHAGSYKAWLDGYGSTHTDTLSQSVTIPSGCKASLTFYLHIDTAETTTSTQYDKLTVTAGSTTLATYSNLNAASGYTQKTFDLSSLAGTTVALKFSGVEDSSLQTSFVIDDTALTTS
protein production: failed

MASLGSAAAGEPATGAEAEPGPPAPPPPPPPPPAPSPSALGPLLPLQREPLYNWQATKASLKERFAFLFNSELLSDVRFVLGKGRGAAAAGGPQRIPAHRFVLAAGSAVFDAMFNGGMATTSAEIELPDVEPAAFLALLRFLYSDEVQIGPETVMTTLYTAKKYAVPALEAHCVEFLTKHLRADNAFMLLTQARLFDEPQLASLCLDTIDKSTVDAISAEGFTDIDIDTLCAVLERDTLSIRESRLFGAIVRWAEAECQRQQLAVTFGNKQKVLGKALSLIRFPLMTIEEFAAGPAQSGILSDREVVNLFLHFTVNPKPRVEYIDRPRCCLRGKECCINRFQQVESRWGYSGTSDRIRFTVNRRISVVGFGLYGSIHGPTDYQVNIQIIEYEKKQTLGQNDTGFSCDGTANTFRVMFKEPIEILPNVCYTACATLKGPDSHYGTKGLKKVVHETPAASKTVFLFFSSPGNNNGTSIEDGQIPEIIFYT
protein production: failed

MLETDLEARMQILRESGFQESQGDDDTFAQRAEWFYQGRPLLLSLCLDLYNGYVTLLGRSSHQTRLKPTTSLPNQLLQDDDDCISDIDSVSEVSSEVESTLSFQQMKDPTAVSEKVDELVSQLVTASLDKEILKHELLHKDQQFHEASKTIELLKKFVMLLEMEKEVAVEENANLGYKLTSLLEENRELATEALFMKNEAVGLARCVLKMRDDHFHKVCILQNRIYSLQASRNSEPVSDKVSYGCFGLDKHKTKKKKENKTEEKKPGFKWLKKLNTINLFTKCSLNPSAAAPSCCTFDLPY
protein production: failed

MAKPVLVRNTEEMMMNLDFPTYIKVAELGCSSGQNSFLAIFEIINTINVLCQHVNKNSPEIDCCLNDLPENDFNTTFKFVPFFNKELMITNKSSCFVYGAPGSFYSRLFSRNSLHLIHSSYALHWLSKVPEKLENNKGNLYITSSSPQSAYKAYLNQFQKDFTMFLRLRSEEIVSNGRMVLTFIGRNTLNDPLYRDCCHFWTLLSNSLRDLVFEGLVSESKLDAFNMPFYDPNVQELKEVIQKEGSFEINELESHGFDLGHYYEEDDFEAGRNEANGIRAVSEPMLIAHFGEEIIDTLFDKYAYHVTQHANCRNKTTVSLVVSLTKK
protein production: failed

MSGKSSPLSVLEYLAIFAIIMTWGINNAAAKVATAYLPPMTVGGLRFLAALVFLFPFIRPPFPEPKKLAAIVLLTGPIHFGLVYVGFGMGQSLSPLVVASQLWIPFTALVAWKLLGETMRLPAVLGLIVAFVGVAWMTLDPHTSGDLPAIVLIVLASACWAVATILVRMTPGAKPLKVQAVTALFAAPSLLAMSFAFETQVVERVMTAPPIAWACVIFAGVVSTIGASALLFWLVQRREAGRVTPYFLLTPLVSCTLGVAFLGDKLTPQLLIGGAATMVGVALVAMTEKRARAEEALAETA
protein production: failed

MGHHHHHHSHMSHYRPELPAPRTDWSLSDVDQWDTAALADGIKSFLLALPAPLVTPEASAEARRALREAAGPVGPALEPPTLPLHRALTLRFLLQHLGRVARRAPALGPAVRALGATF
protein production: failed

MLPGLKYIDRIGVDDVLVWLRKGIVWIVLAIVLCVGGALTYASMTPPRYKAYTDIVVNPSNLNVVNDGVFSPNQQRDTQILEVESKLRTITSRNVLARVVDELKLDQDPEFVSPPPLARLKAMFSSKPDDGDNRVGALRSLGDRVTAERDPRSFVVTLSVWTNDAEKSVAVSKAIVKAFESELFQTNSDSSQRVVDDLKKRLEEMRENVTIAEKRVADFRRENGLQENNGQLVSNLASGELNAQVLATQQRLIQEESRLKQMEAAIAQNRTQSDAIFDSQTMNTIRAQYSTLQQQIGAMTLTYGARHPRLATAGAERAMLERGMADEARRILQAAKINVAEARSSLDALRLKAVAERANVFTDNDAQVRLRDLDRDARSAAAIYETYLTRSRQLAEQQSIDSTNVRVISQPVAPNSRSWPPGKLTFLIAGGMGGLFLGLAIAVALGLWGYLRRDDHAEAAARYA
protein production: failed

MSNMQLDTLRRIVQEINSSVSLHDSLDIMVNQVADAMKVDVCSIYLLDERNQRYLLMASKGLNPESVGHVSLQLSEGLVGLVGQREEIVNLENASKHERFAYLPETGEEIYNSFLGVPVMYRRKVMGVLVVQNKQPQDFSEAAESFLVTLCAQLSGVIAHAHAVGNID
protein production: not failed

MRIKNKCLVLLIPLGISIMFDIRVKAFQPVSHYVVIEQAESKMSNDSIIRKAIEAYPNVAAWGSVGPDLGYMQVGELGDYSPWGDRYHYYKVGTYAAKQLKNALETRDMKKIAFAAGWISHVTGDLACHGIYVNPECGVYLDNKDGRKQHKHMEAEAEPYAWVNIAGHSINDYNSNNMSNNVFKGTDDIPFDLMNETSKEVYGQSPSTAEEKLWASTLLTGLRTGVGYSYTDYNESKQFLSINSREQRLNASFSQGINQCYKLLTYSENGDYSKFTDRWNLDVGKSSSPISSLTTIISTGTNLGSGTDDDIYFGIHLNNGQKKEWLLDKETYNDFENGATDEYYLYINDMDFLPTMVDKVWVRKNSTGSFAGNWFFKALRIDANGNDVLSVSPNEWITDSNSQAEFNSDWSSVTNLTDPEF
protein production: failed

MGSVQVKAHADEQGRAVVRASIEIAAPPSVVFGVILDCGRAARMSPGVKRCRVVSRAADGSEVREHTVKWGFFLPALQSRSRLSLQPDREIRFTCIGGDIRACDGFWRLEPLDGGMRTRVTYDLWATAPYAAPAGLVSSLMRRTVPQSLAALRRECEGLEHHHHHH
protein production: failed

MSKDAQQISALRRFSVSIISVALLVISGTVGYMYLENMSLLDALYMTVITVATVGFSEVRPLDDVGKIFTMVLIVGGTGIFFFTLTSVAVFFVSGEWKEHWEQQRNERMLRKLNDHFIICGYGRLGGSVAEELRAKAVPFVVIDNMIDNVLRARDEGFLAIKGNAADEEVLADAGLHRAKGLIAAAGNDAENVFIVLTARNLKPNLYIVARADCDGSESKLRRAGAEKVVMLYRSAGKRMASLLTEPELEEYLDELSNANNLNLRIAQYLVGDNSPLVGKSFQEVDLYNNHRINVVGYKLPDGELHTTPRPAEIIQKNGTIIVIGKSDDLEMLCKLAQGETQR
protein production: failed

RDVAFTADGTTAYGTLHVPEHRAGQRLRAALLLPGSGPTDRDGNQPPASLPDTLAQLADTLGKDGVATLRFDKYGTGRTGLGTYQDRPEELDYPAFVRQARAGYESLRDQPETDPHALLVVGHSEGAMTGLLLGGTVSPRPAGLALLQPQAIRMLDLVALQLRAQIAEATRQGQFTPEQQRTVNAAVDAAVTALRERRPVDTADLPSPIARLFEAFQGPNARFVRSDDAVYPPDTAFALRPGTKVLLTCGTHDVQVPCDTTNVLTTALRHAHAHGPGRVVLPGVDHLMHDTDHPATLTPPVLDSL
protein production: failed

MALEPAEIFEKVSPSVWEVRVIGPDGKGLSMGSAVVIGDGVVITNCHVLRGGKQVWLKRGNANFGARLQYPDVERDLCQLRVADFHYPPVTLAPGSALVTGQKVYAIGNPLGLELTISEGLISSLRTDDDGRLKSVQTSAAISRGSSGGGLFDANGRLIGITDHQVVLTLGQNLNFAIPADWIADVPARAQKALAARAAAASAVVASTPAPQSAAPTPAPAPAPRHQGELGPNQQTGFSVYLQKTWPKAFVAADGDHYYYWTGKNAELYALSACQERWQNCSVYARNNTVVEPVEGTGERPGAAR
protein production: failed

SKEVRGTLKVSAPRDIGKQHIAPILAAFTEQYPEVVPYLYLNDNISNLAESGLDVVIRYGELADSSLISRKLATSRRVLCASPAYLARKGIPKTPQDLAQHDCLAMVRSNEEMKTWHFQENEQHKVITVVPKSFADDGEVIR
protein production: failed

MLIKKNALSILKIVFPIAVLLFVIYQSKKELTNLSFKRTLMVINGLERTDLFMLVLIGLLAVAAMSLYDYVLKYSLRLSITNGKVFRVSWIANSFNNVLGFGGLAGVGLRMMFYKEHTKDHKALVKGIAWLTSSMLLGLSVFSIFVAARVLPVDEVIHEKPWLWAVVIGFALILPLSLAVSKIKDRKAGDEENADKVKNPIFAYIGASVVEWLMAGTRHLFCFVRYGHSCRYQVCVRGVRHCGDRRNDQPRAGRLRLV
protein production: failed

KPIKIRGPSHCAGCKEEIKHGQSLLALDKQWHVSCFKCQTCSVILTGEYISKDGVPYCESDYHAQFG
protein production: not failed

MSLSTFNRIHLVVLDSVGIGAAPDANNFSNAGVPDGASDTLGHISKTVGLNVPNMAKIGLGNIPRDTPLKTVPAENHPTGYVTKLEEVSLGKDTMTGHWEIMGLNITEPFDTFWNGFPEEIISKIEKFSGRKVIREANKPYSGTAVIDDFGPRQMETGELIIYTSADPVLQIAAHEDVIPLDELYRICEYARSITLERPALLGRIIARPYVGKPRNFTRTANRHDYALSPFAPTVLNKLADAGVSTYAVGKINDIFNGSGITNDMGHNKSNSHGVDTLIKTMGLSAFTKGFSFTNLVDFDALYGHRRNAHGYRDCLHEFDERLPEIIAAMKVDDLLLITADHGNDPTYAGTDHTREYVPLLAYSPSFTGNGVLPVGHYADISATIADNFGVDTAMIGESFLDKLIEGHHHHHH
protein production: not failed

MNESERKIVEEFQKETGINFKNEELLFRALCHSSYANEQNQAGRKDVESNEKLEFLGDAVLELFVCEILYKKYPEAEVGDLARVKSAAASEEVLAMVSRKMNLGKFLFLGKGEEKTGGRDRDSILADAFEALLAAIYLDQGYEKIKELFEQEFEFYIEKIMKGEMLFDYKTALQEIVQSEHKVPPEYILVRTEKNDGDRIFVVEVRVNGKTIATGKGRTKKEAEKEAARIAYEKLLKERS
protein production: not failed

MASTGASRSLAASPRPPQGRSSRQDKYSVLLPTYNERENLPLIVWLLVKSFSESAINYEIIIIDDGSPDGTREVAEQLAEIYGPDRILLRPREKKLGLGTAYIHGIKHATGNYVIIMDADLSHHPKFIPEFIRKQKEGNFDIVSGTRYKGNGGVYGWDLKRKIISRGANFITQILLRPGASDLTGSFRLYRKEVLQKLIEKCVSKGYVFQMEMIVRARQMNYTIGEVPISFVDRVYGESKLGGNEIVSFLKGLLTLFATT
protein production: failed

MAIATARAGGKETGTEQMYILQVTNSRSTMSKMSNVKEVNASTAFSMIKKGALLVDVRETREINRKAFGVSDYLSVPMSRFQSSLHEIPAERKVILACHSGNRSSIASRILVNSGHRKVHNLQHGIISWEREGLPVRKKESPSPLTMLFQMFRKEA
protein production: failed

MPPAPVFLLLAAGASRRMRGADKLMEPVAGEPLLRLQARRGIAAGLAVLVTLPPDRPERWAALEGLAVQRLPVPDAAEGLAASIRAGVAAAPPDAAVLLLLADLPEIEATDLAQMAALHREAPKALLRATTADGRPGHPILFPADLRPELQALKGDQGARRILERAAGRLRLVPLAGTRAVTDLDTPEDWALWRARTGHLEHHHHHH
protein production: failed
